Among the data in patent publication US20180355338A1 are relative Ki mutation values, retold here.

For test [1], the target named is TY-145 protease variant I150A, S173P, S175P, F180Y (Bacillus sp. TY-145). Description: Ki fitted from Suc-AAPF-pNA activity; Tris buffer pH 8; ratio against m3 (without I150A).
For test [2], the target named is TY-145 protease variant K146A, S173P, S175P, F180Y (Bacillus sp. TY-145). In words: Ki fitted from Suc-AAPF-pNA activity; Tris buffer pH 8; ratio against m3 (without K146A).
In test [3] the target is TY-145 protease variant I150A, S173P, S175P, F180Y (Bacillus sp. TY-145). In words: Ki fitted from Suc-AAPF-pNA activity; Model B detergent; ratio against m3 (without I150A).
Test [4] addresses TY-145 protease variant S173P, S175P, I178F, F180Y (Bacillus sp. TY-145). Description: Ki fitted from Suc-AAPF-pNA activity; Model B detergent; ratio against m3 (without I178F).
Test [5] concerns the target TY-145 protease variant S173P, S175P, I178P, F180Y (Bacillus sp. TY-145). Description: Ki fitted from Suc-AAPF-pNA activity; Model B detergent; ratio against m3 (without I178P).
Test [6] deals with TY-145 protease variant K146F, S173P, S175P, F180Y (Bacillus sp. TY-145). In words: Ki fitted from Suc-AAPF-pNA activity; Model B detergent; ratio against m3 (without K146F).
The target in test [7] is TY-145 protease variant K146N, S173P, S175P, F180Y (Bacillus sp. TY-145). Description: Ki fitted from Suc-AAPF-pNA activity; Model B detergent; ratio against m3 (without K146N).
Test [8] deals with TY-145 protease variant K146T, S173P, S175P, F180Y (Bacillus sp. TY-145). In words: Ki fitted from Suc-AAPF-pNA activity; Model B detergent; ratio against m3 (without K146T).
In test [9] the target is TY-145 protease variant K146W, S173P, S175P, F180Y (Bacillus sp. TY-145). Description: Ki fitted from Suc-AAPF-pNA activity; Model B detergent; ratio against m3 (without K146W).
Test [10] has as its target TY-145 protease variant S173P, S175P, F180Y, L184D (Bacillus sp. TY-145). In words: Ki fitted from Suc-AAPF-pNA activity; Model B detergent; ratio against m3 (without L184D).
Test [11] concerns the target TY-145 protease variant S173P, S175P, F180Y, L184W (Bacillus sp. TY-145). In words: Ki fitted from Suc-AAPF-pNA activity; Model B detergent; ratio against m3 (without L184W).
Test [12] has as its target TY-145 protease variant S173P, S175P, F180Y, L184Y (Bacillus sp. TY-145). In words: Ki fitted from Suc-AAPF-pNA activity; Model B detergent; ratio against m3 (without L184Y).
Test [13] deals with TY-145 protease variant S173P, S175P, N176Y, F180Y (Bacillus sp. TY-145). In words: Ki fitted from Suc-AAPF-pNA activity; Model B detergent; ratio against m3 (without N176Y).
For test [14], the target named is TY-145 protease variant S173P, S175P, F180Y, R224G (Bacillus sp. TY-145). Description: Ki fitted from Suc-AAPF-pNA activity; Model B detergent; ratio against m3 (without R224G).
Test [15] concerns the target TY-145 protease variant S27K, I150N, S171N, S173P, G174R, S175P, F180Y, Q198E, T297P (Bacillus sp. TY-145). In words: Ki fitted from Suc-AAPF-pNA activity; Model B detergent; ratio against m4 (without I150N).
In test [16] the target is TY-145 protease variant S27K, S171N, S173P, G174R, S175P, F180Y, L184Y, Q198E, T297P (Bacillus sp. TY-145). Description: Ki fitted from Suc-AAPF-pNA activity; Model B detergent; ratio against m4 (without L184Y).
Test [17] addresses TY-145 protease variant S27K, S173P, G174K, S175P, F180Y, L184F, Q198E, N199K, T297P (Bacillus sp. TY-145). In words: Ki fitted from Suc-AAPF-pNA activity; Model B detergent; ratio against m8 (without L184F).
The target of test [18] is TY-145 protease variant S27K, S173P, G174K, S175P, F180Y, L184Y, Q198E, N199K, T297P (Bacillus sp. TY-145). Description: Ki fitted from Suc-AAPF-pNA activity; Model B detergent; ratio against m8 (without L184Y).
The target of test [19] is TY-145 protease variant S27K, S173P, G174K, S175P, F180Y, L184F, Q198E, N199R, T297P (Bacillus sp. TY-145). Description: Ki fitted from Suc-AAPF-pNA activity; Model B detergent; ratio against m9 (without L184F).
The target in test [20] is TY-145 protease variant S27K, S173P, G174K, S175P, F180Y, L184Y, Q197K, Q198E, T297P (Bacillus sp. TY-145). Description: Ki fitted from Suc-AAPF-pNA activity; Model B detergent; ratio against m10 (without L184Y).
Test [21] deals with TY-145 protease variant S27K, S171N, S173P, G174R, S175P, F180Y, G182A, L184F, Q198E, N199K, R224G, T297P (Bacillus sp. TY-145). In words: Ki fitted from Suc-AAPF-pNA activity; Model B detergent; ratio against m13 (without R224G).
Test [22] deals with TY-145 protease variant S27K, V162T, S173P, G174K, S175P, F180Y, L184F, Q197K, Q198E, T297P (Bacillus sp. TY-145). Description: Ki fitted from Suc-AAPF-pNA activity; Model B detergent; ratio against m14 (without L184F).
The target in test [23] is TY-145 protease variant S114Q, S173P, S175P, F180Y (Bacillus sp. TY-145). Description: Ki fitted from Suc-AAPF-pNA activity at 8 inhibitor concentrations; Model B detergent; ratio against m3 (without S114Q).
The target of test [24] is TY-145 protease variant S173P, S175P, I178F, F180Y (Bacillus sp. TY-145). Description: Ki fitted from Suc-AAPF-pNA activity; Model B detergent; ratio against m3 (without I178F); second row of the same variant.

Turning to “Z-Gly-Ala-NHCH(CH2C6H4pOH)C(OH)(SO3Na)-H, wherein Z is benzyloxycarbonyl (peptide)”, the relative Ki mutation came to 0.4 in test [1]; 0.29 in [2]; 0.5 in test [3]; 0.5 in test [4]; 0.51 in test [5]; 0.25 in test [6]. Also, the relative Ki mutation is 0.93 in test [7]; 0.08 in test [8]; 0.23 in test [9]; 0.37 in test [10]; 0.5 in test [11]; 0.24 in test [12]. For the same substance, the relative Ki mutation amounted to 0.81 in test [13]; 0.47 in test [14]; 0.24 in [15]; 0.18 in test [16]; 0.36 in test [17]; 0.21 in test [18]. The relative Ki mutation turned out to be 0.22 in [19]; 0.32 in test [20]; 0.69 in test [21]; 0.17 in test [22]; 0.63 in test [23]; 0.49 in test [24].
